This is an account of results in patent US20260250737A1, “Engineered Luciferases and Luciferin Substrates” (Monod Bio, Inc., priority 2023, published 2026).

Where a chain is given by its changes, count along the chain named. Numbers in names are those of the source.

Series [1] is described as follows: Luciferase activity (brightness) of LuxSit-i variants. Format: biochemical. As to conditions: relative to LuxSit-i. The procedure:
SSM was performed to evaluate the effect of single mutations on the luciferase activity of LuxSit-i. FIG. 3 graphically presents the mutation frequency at the positions found in the SSM as beneficial for increasing luciferase activity.
FIG. 4A provides data for luciferase activity for MBIO-148, MBIO-158 and Luxsit-i. MBIO-148, MBIO-158, and Luxsit-i were serially diluted starting from a final in-well concentration of 10,000 pM. Each dilution was combined with Diphenylterazine (DTZ) to a final in-well concentration of […]. Points shown are from the initial reading once the plate read was started.
FIG. 4B provides data for luciferase activity for MBIO-148, MBIO-301, MBIO-302, and LuxSit-i. MBIO-148, MBIO-301, MBIO-302, and Luxsit-i were serially diluted starting from a final in-well concentration of 500 pM. Each dilution was combined with DTZ to a final in-well concentration of 10 μM. Points shown are from the initial reading once the plate read was started.

Series [2] in a line: Stability of LuxSit-i variants (yeast display protease resistance, static light scattering). The format is physicochemical. To be noted: relative to LuxSit-i. The procedure: In certain aspects, these polypeptides have improved stability at high temperatures as compared to LuxSit-i. For example, these polypeptides are stable at higher temperatures as compared to LuxSit-i. Stability may be measured by enzymatic activity and/or protein misfolding measured over a period of time. In certain embodiments, stability may be measured using static light scattering (SLS).
A single saturation mutagenesis (SSM) was performed to evaluate by yeast display the effect of single mutations in the stability of LuxSit-i (SEQ ID NO:1). The SSM library was transformed into electrocompetent cells of the strain EBY100. Twenty million cells were labeled with anti-myc FITC antibody in order to detect protein expression on the yeast surface by measuring fluorescence emission. Cells were sorted using a Sony SH800 cell sorter and those showing protein expression (FITC signal) were collected and grown. DNA was extracted from the sorted cells using conventional DNA extraction conventional methods. The DNA library was sequenced using Nanopore technology. Single amino acid substitutions that increase protein stability are enriched after sorting.
(§1) Single saturation mutagenesis (SSM) was performed to evaluate (by yeast display) the effect of single mutations in the stability of LuxSit-i-i. The SSM library was transformed into electrocompetent cells of the strain EBY100. Twenty million cells were labeled with an anti-myc FITC antibody to detect protein expression on the yeast surface by measuring the emission of fluorescence by FITC. Yeast were incubated with a mixture of 3.5 uM trypsin and 1.4 uM chymotrypsin (1/729 dilution of the stock solution) at 25° C. for 15 min. Cells were sorted using a Sony SH800 cell sorter and those showing protein expression (FITC signal) after protease incubation were collected and grown. DNA was extracted from the sorted cells using conventional DNA extraction conventional methods. The DNA library was sequenced using Nanopore technology. Single amino acid substitutions that increase protein stability are enriched after sorting.
as §1, with “LuxSit-i.” for “LuxSit-i-i.”, “antibody in order” for “antibody”, “10” for “3.5”, “4” for “1.4”, “(1/243” for “(1/729”
as §1, with “LuxSit-i.” for “LuxSit-i-i.”, “antibody in order” for “antibody”, “15” for “3.5”, “6” for “1.4”, “(1/162” for “(1/729”, “sorting. […]” for “sorting.”

Series [3] relates to construct containing Small Lux (SmLux), Large Lux (LgLux), FKBP and FRB. The series can be described thus: LuxSit split optimization: SmLux-LgLux-FKBP-FRB construct on the surface of yeast, rapamycin-induced signal. As to conditions: Table 19, LgLux variants, 50 uM substrate 1c. Format: biochemical. Here is the method:
To optimize the function of the LuxSit Splits, a construct containing Small Lux (SmLux), Large Lux (LgLux) and the proteins that bind the molecule Rapamycin (FKBP and FRB), connected by GS linkers, was expressed on the surface of yeast. When 50 uM of substrate 1c is added to yeast expressing this construct, a baseline signal is observed due to SmLux and LgLux reconstitution. When 20 uM of Rapamycin is added, SmLux and LgLux are brought closer to each other by FKBP and FRB, enhancing their reconstitution. As a result, an increase in signal is observed.
Libraries of SmLux and LgLux were assembled and tested independently to identify variants with lower baseline and higher fold change.

In series [4] the test system is SmLux. The series can be described thus: LgLux stability optimization: error-prone PCR LgLux mutants on yeast, protease treatment, SmLux complementation. Format: biochemical. As to conditions: Table 20, EP-PCR LgLux mutants on yeast, 50 uM substrate 1c; for Fold change upon SmLux peptide addition: 200 nM SmLux. Here is the method:
LgLux mutants were generated by error-prone PCR (EP-PCR) and treated with protease and their activity measured as depicted schematically in FIG. 44.
Yeast expressing a library of the LgLux mutants were incubated with proteases and screened to select variants that were stable enough to resist proteolysis. Functional variants were selected by adding 50 uM of substrate 1c and 200 nM of SmLux.
The nucleotide sequence encoding LgLux_4039 was subjected to EP-PCR to identify protease-stable mutants. The sequences (SEQ ID NOs: 2806-2814) and activity of the mutants are summarized below in Table 20.

The subject of series [5] is SmLux. The series can be described thus: Computationally generated LgLux variants expressed in E. coli, tested in lysates with SmLux and substrate 1c. Format: biochemical. An outline of the steps:
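Variants expressed in E. coli and screened as lysates, complemented with 20 uM SmLux and given 50 uM substrate 1c; luminescent activity measured.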

Setting [6] is: Table 3, combined substitutions.

B1: MBIO-158: LuxSit-i variant W100F (protein)
chain: MSEEQIRQFLRRFYEALDSGDADTAASLFHPGVTIHLWDGVTFTSREEFREWFERLFSTSKDAQREIKSLEVRGDTVEVHVQLHATHNGQKHTVDLTHHFHFRGNRVTEVRVHINPTG
B1: in series [1] (Table 2, single substitutions), the Brightness improvement entry is on record as “Slight increase”. For the same molecule, the Stability improvement result in series [2] (Table 2, single substitutions) is on record as “Monomeric”.

B2: MBIO-150: LuxSit-i variant F9S, SEQ ID NO 73 (protein)
chain: B1 chain with F9S, F100W
B2: the Brightness improvement entry in series [1] (Table 2, single substitutions) was “No change”. In addition, the Stability improvement entry in series [2] (Table 2, single substitutions) is listed as “Monomeric”.

B3: MBIO-149: LuxSit-i variant A85F, SEQ ID NO 82 (protein)
chain: B1 chain with A85F, F100W
Consider B3, for which the Brightness improvement entry in series [1] (Table 2, single substitutions) is “Slight increase”. In addition, the Stability improvement entry in series [2] (Table 2, single substitutions) was “No change”.

B4: MBIO-154: LuxSit-i variant F9V_A85F_H87L, SEQ ID NO: 5 (protein)
chain: B1 chain with F9V, A85F, H87L, F100W
As for B4, the Brightness improvement result in series [1] (setting [6]) is “Slight increase”. Further, the Stability improvement entry in series [2] (setting [6]) is listed as “Slight improvement”.

B5: MBIO-157: LuxSit-i variant Q64W, SEQ ID NO 47 (protein)
chain: B1 chain with Q64W, F100W
B5: in series [1] (Table 2, single substitutions), the Brightness improvement result is given as “Slight increase”. In series [2] (Table 2, single substitutions), the Stability improvement entry is reported as “No change”.

B6: MBIO-156: LuxSit-i variant H87L, SEQ ID NO 88 (protein)
chain: B1 chain with H87L, F100W
As to B6, the Brightness improvement result in series [1] (Table 2, single substitutions) is on record as “Slight increase”. In series [2] (Table 2, single substitutions), the Stability improvement entry is given as “No change”.

B7: MBIO-151: LuxSit-i variant F9S_A85F_H87L, SEQ ID NO: 7 (protein)
chain: B1 chain with F9S, A85F, H87L, F100W
Turning to B7, in series [1] (setting [6]), the Brightness improvement result is listed as “No change”. Besides, the Stability improvement result in series [2] (setting [6]) was “No change”.

B8: MBIO-152: LuxSit-i variant F9S_A85F_H87L_Q64W, SEQ ID NO: 6 (protein)
chain: B1 chain with F9S, Q64W, A85F, H87L, F100W
Turning to B8, the Brightness improvement result in series [1] (setting [6]) was “Slight increase”. The Stability improvement entry in series [2] (setting [6]) is listed as “Slight improvement”.

B9: MBIO-155: LuxSit-i variant F9V_A85F_H87L_Q64W, SEQ ID NO: 4 (protein)
chain: B1 chain with F9V, Q64W, A85F, H87L, F100W
B9: in series [1] (setting [6]), the Brightness improvement entry is “Slight increase”. In addition, the Stability improvement result in series [2] (setting [6]) is reported as “Slight improvement”.

B10: MBIO-147: LuxSit-i variant W100F_A85F_H87L, SEQ ID NO: 3 (protein)
chain: B1 chain with A85F, H87L
For B10, in series [1] (setting [6]), the Brightness improvement result is “Increase”. Further, the Stability improvement entry in series [2] (setting [6]) is recorded as “Monomeric”.

B11: LgLux_4039: Large Lux fragment of MBIO-4039 (protein)
chain: MSEEQIRQNLRRFYEALDSGDAITAASLFDPGVTITLWDGTTFTSVEEFREWFESQFSTSKDALREISSLEVRGDTVEVTVRLSFTRNGQKHTVDLLQLFKFV
Take B11: the “Baseline Signal (Normalized by expression)” value in series [3] was found to be 22064.6; in the series on SmLux [4], 417.8; in the series on SmLux [5] (50 uM substrate 1c, before SmLux peptide addition) it was 299.2; in the series on SmLux [5] (Table 22, 50 uM substrate 1c), 1766.6. Besides, the “Fold change upon Rap addition” value in series [3] (20 uM Rapamycin) is reported as 1.9. Further, the “Fold change upon SmLux peptide addition” value in the series with SmLux [4] is 78.5; with SmLux [5] (20 uM SmLux, 50 uM substrate 1c) it was 214.43; in the series on SmLux [5] (Table 22, 20 uM SmLux, 50 uM substrate 1c) it was 360.49.

B12: SEQ ID NO 2811: LgLux_4039 EP-PCR mutant N9I, N88D (protein)
chain: B11 chain with N9I, N88D
With B12, in the series with SmLux [4], the “Baseline Signal (Normalized by expression)” value was 232.7 and the “Fold change upon SmLux peptide addition” value was determined as 55.5.

B13: SEQ ID NO 2813: LgLux_4039 EP-PCR mutant T34I (protein)
chain: B11 chain with T34I
Regarding B13, in the series with SmLux [4], the “Baseline Signal (Normalized by expression)” value came out at 241.6 and the “Fold change upon SmLux peptide addition” value was 52.

B14: SEQ ID NO 2814: LgLux_4039 EP-PCR mutant E51V, K61T (protein)
chain: B11 chain with E51V, K61T
With B14, in the series on SmLux [4], the “Baseline Signal (Normalized by expression)” value is on record as 934.2 and the “Fold change upon SmLux peptide addition” value is reported as 53.1.

B15: SEQ ID NO 2812: LgLux_4039 EP-PCR mutant L64F (protein)
chain: B11 chain with L64F
Turning to B15, in the series on SmLux [4], the “Baseline Signal (Normalized by expression)” value was 233.2 and the “Fold change upon SmLux peptide addition” value worked out at 61.7.
